Measurements reported in paper PMC8213124, “Chemokines act as phosphatidylserine-bound “find-me” signals in apoptotic cell clearance” (PLoS Biology, 2021).

B1: CXCL11 (natural protein, human, UniProt O14625 22-94, looked up)
chain: FPMFKRGRCLCIGPGVKAVKVADIEKASIMYPSNNCDKIEVIITLKENKGQRCLNPKSKQARLIIKKVERKNF
notes: human chemokine CXCL11, untagged recombinant protein; source: bought: Peprotech, recombinant, produced in Escherichia coli
B2: CXCL9 (natural protein, human, UniProt Q07325 23-125, looked up)
chain: TPVVRKGRCSCISTNQGTIHLQSLKDLKQFAPSPSCEKIEIIATLKNGVQTCLNPDSADVKELIKKWEKQVSQKKKQKNGKKHQKKKVLKVRKSQRSRQKKTT
notes: human chemokine CXCL9, untagged recombinant protein; source: bought: Peprotech, recombinant, produced in Escherichia coli

Molecular target: the molecule itself
Experiment: cross-linking; 50 ng chemokine in 20 mM HEPES, 30 min at room temperature without or with phospholipid (brain PE, PC, PS or heart CL; 1:8 chemokine:total lipid molar ratio), then 0.25 mM BS3 for 30 min; SDS-PAGE and immunoblot with anti-chemokine antibodies

Row | Protein | binding result
1 | B1 | binds
2 | B2 | binds
